One assay has as its target HLA-A*02:06. Briefly: IEDB peptide-MHC binding, purified MHC/competitive/radioactivity; filed as Kd, often an IC50 or EC50 that approximates it; ≥ and ≤ were set here for values at or beyond the usual limits of such assays. The note with it: source organism: Vaccinia virus WR.
Regarding DLLFNEKLKV, the Kd (as a rule, the equilibrium constant for the complex coming apart) amounted to 2020 nM.
The same measure, in the same setting: in the case of WLKDSAIMVA it was 4840 nM; in that of RTIDAINKCV, 341 nM; in that of GLIVILFIM, 5290 nM.
Turning to VMDKNHAIFT, the Kd was not below 69800 nM.
The same measure, in the same setting: in the case of VLQQNNSFII it was 9650 nM.
On to CQCTVQEFI, for which the Kd came to 1130 nM.
Turning to PTNDIPSLFI, the Kd amounted to 14800 nM.
In the case of CVDHPFIYV, the Kd amounted to 148 nM.
For the sequence AIDRQVSVKL, the Kd is not below 32000 nM.
For LVAEHRFENM, the Kd stood at 723 nM.
For the sequence IMETIDPVYI, the Kd worked out at 349 nM.
Take SIAMLKSKNI: the Kd is 259 nM.
Consider YVSSSYKDI, for which the Kd turned out to be 16600 nM.
With KVIKLVKSL, the Kd worked out at 260 nM.
On to ALYSPPLISI, for which the Kd was found to be 162 nM.
As to EMKYALINL, the Kd was not below 77100 nM.
The same measure, in the same setting: in the case of FIVYGRSNA it was 8750 nM; in that of KVEKYLPEV, 116 nM; in that of GAAITLVVI, 2950 nM.
Regarding KVYLSTFNM, the Kd was found to be 265 nM.
Regarding SLIYYQNEVT, the Kd was 4310 nM.
On the same count and under the same terms, the value for GARVIWMDA was 2140 nM.
Turning to VVIVENDNV, the Kd came to 4300 nM.
For the sequence FLPQIGGEAI, the Kd stood at 10.1 nM.
Turning to DLLNVTYNI, the Kd was determined as 1280 nM.
For RQLTSNVDV, the Kd is 170 nM.
For the sequence MIIGEPIIVA, the Kd came out at 124 nM.
Consider DVERLQMAGV, for which the equilibrium dissociation constant (Kd) was determined as 776 nM.
For VVISVIFYFI, the Kd was found to be 542 nM.
As for TIAVSVYGAI, the Kd is 5390 nM.
Still for that read-out and setting: the value for IVSLCPTKKL was not below 28400 nM.
Turning to KLVETGFVI, the Kd worked out at 200 nM.
Same read-out and setting: the value for MQLKIDKLT was not below 59600 nM.
Take DVSVSVGTGI: the dissociation constant Kd was not below 22100 nM.
For the sequence RILSEKRKDT, the Kd was 6860 nM.
Same read-out and setting: in the case of ITLILSNKLL it was 3890 nM; in that of ATQFNFNGHT, not below 26500 nM.

Another assay concerns the target HLA-A*02:02. The description is as above. The settings on record: source organism: Lymphocytic choriomeningitis virus (strain Armstrong).
Regarding SNSEDLLKAV, the Kd was 17700 nM.

The same assay, now with this note: source organism: Lymphocytic choriomeningitis virus (strain WE).
Turning to FSTSAYLISI, the Kd worked out at 0.675 nM.

Staying with this assay, now noted: source organism: Mammarenavirus brazilense.
With LNISGYNYSL, the Kd is 77.1 nM.
Same read-out and setting: in the case of ICFWSTLFFT it was not below 33200 nM.

The assay is the same for the next values; noted with them: source organism: Mammarenavirus whitewaterense.
Regarding GLVDVCFWS, the dissociation constant (Kd) is 116 nM.

Staying with this assay, now noted: source organism: SARS coronavirus Tor2.
LVFLWLLWPV: the Kd came to 0.926 nM.
ALLFLMSFT: the Kd was determined as 2830 nM.
The same measure, in the same setting: the value for WLLWPVTLA was 11.8 nM; that for KLLIVLTCI was 260 nM.

The assay is the same for the next values; noted with them: source organism: Vaccinia virus WR.
Take TIAGGVCYYL: the Kd amounted to 0.036 nM.
In the case of IAIFNNRNL, the Kd stood at 9230 nM.
TILATLNTL: the Kd was found to be 238 nM.
Take GTKGKLYIA: the Kd came out at 1720 nM.
For the sequence ILATLNTLI, the dissociation constant Kd came to 0.413 nM.
Turning to GLSASDVDM, the Kd is 497 nM.
On the same count and under the same terms, the value for YAVLSEYET was 1780 nM.
Turning to IISLFYTFAI, the Kd amounted to 108 nM.
KIVQLPKRGV: the Kd turned out to be 4120 nM.
Take DLLFNEKLKV: the Kd is 357 nM.
WLKDSAIMVA: the Kd was 14.8 nM.
Consider RTIDAINKCV, for which the Kd came out at 10800 nM.
The same measure, in the same setting: in the case of GLIVILFIM it was 13400 nM; in that of VMDKNHAIFT, 18700 nM.
Consider VLQQNNSFII, for which the Kd is 665 nM.
For the sequence CQCTVQEFI, the Kd stood at 2050 nM.
On the same count and under the same terms, the value for PTNDIPSLFI was 11000 nM; that for CVDHPFIYV was 300 nM.
Turning to AIDRQVSVKL, the Kd amounted to 7900 nM.
Same read-out and setting: in the case of LVAEHRFENM it was 2050 nM; in that of IMETIDPVYI, 28.6 nM; in that of SIAMLKSKNI, 1090 nM.
Still for that read-out and setting: the value for YVSSSYKDI was 5040 nM.
For KVIKLVKSL, the Kd was 578 nM.
For the sequence ALYSPPLISI, the Kd stood at 1.42 nM.
In the case of EMKYALINL, the Kd amounted to 3060 nM.
For the sequence FIVYGRSNA, the Kd was 6090 nM.
With KVEKYLPEV, the Kd came out at 1050 nM.
Turning to GAAITLVVI, the Kd was 6450 nM.
Consider KVYLSTFNM, for which the Kd is 482 nM.
For the sequence SLIYYQNEVT, the Kd turned out to be 77.2 nM.
Consider GARVIWMDA, for which the Kd was found to be 4600 nM.
Consider VVIVENDNV, for which the Kd turned out to be 13200 nM.
For the sequence FLPQIGGEAI, the Kd is 0.998 nM.
For the sequence DLLNVTYNI, the Kd turned out to be 297 nM.
As to RQLTSNVDV, the Kd was not below 50800 nM.
Regarding MIIGEPIIVA, the Kd was found to be 42 nM.
Same read-out and setting: in the case of DVERLQMAGV it was 215 nM; in that of VVISVIFYFI, 239 nM.
For TIAVSVYGAI, the Kd came out at 1550 nM.
Same read-out and setting: in the case of IVSLCPTKKL it was 9.46 nM.
As for KLVETGFVI, the Kd stood at 13200 nM.
As to MQLKIDKLT, the Kd was 7670 nM.
On to DVSVSVGTGI, for which the Kd amounted to 17900 nM.
For RILSEKRKDT, the Kd was found to be 711 nM.
As to ITLILSNKLL, the Kd stood at 1090 nM.
In the case of ATQFNFNGHT, the Kd was not below 28600 nM.

The record behind these values is the Immune Epitope Database (IEDB).
